Data on one molecule can be found in publication PMC5240623, “Methylation specific targeting of a chromatin remodeling complex from sponges to humans” (Scientific Reports, 2017).

No end group written: not given here.

In this experiment the target is T1, HsGATAD2A coiled-coil domain, uncleaved fusion peptide (human, UniProt Q86YP4 137-178).
T1 construct: GATAD2A (p66α), human, coiled-coil domain; the purification of this construct is not described here; also called GATAD2A (p66α)
Kind of experiment: ITC; fusion peptides left uncleaved; 50 mM Hepes pH 7.4, 150 mM NaCl, 298 K; MicroCal Auto-iTC200, 20–24 injections; HsMBD2 (1.8 mM), EmGATAD2A/B (2.74 mM), DmGATAD2A/B (2.5 mM) injected into HsGATAD2A (100 μM), EmMBD2/3 (270 μM), DmMBD2/3 (250 μM); one-site binding model. Particulars: both partners purified.

T1 sequence (Q86YP4 137-178): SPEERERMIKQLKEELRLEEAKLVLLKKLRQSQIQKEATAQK

B1: HsMBD2 coiled-coil domain, uncleaved fusion peptide (domain or fragment, human)
chain: KAFIVTDEDIRKQEERVQQVRKKLEEALMADILS
modifications: also: uncleaved fusion tag
notes: MBD2, human, coiled-coil domain; the purification of this construct is not described here
As usually defined, the Kd is a measure of binding affinity in units of concentration. Read a low Kd as higher affinity. One may read the stoichiometry N as a count of units in the complex or per binding partner. With B1, binding was characterised by a dissociation constant (Kd) of 48 nM, the dH was -9.93 kcal/mol and the “stoichiometry N” value amounted to 1.3.
